The source of these data is publication doi:10.1101/2023.05.17.540984.

Data set [1] addresses T1, ELK1 (UniProt P19419 1-428).
T1 sequence: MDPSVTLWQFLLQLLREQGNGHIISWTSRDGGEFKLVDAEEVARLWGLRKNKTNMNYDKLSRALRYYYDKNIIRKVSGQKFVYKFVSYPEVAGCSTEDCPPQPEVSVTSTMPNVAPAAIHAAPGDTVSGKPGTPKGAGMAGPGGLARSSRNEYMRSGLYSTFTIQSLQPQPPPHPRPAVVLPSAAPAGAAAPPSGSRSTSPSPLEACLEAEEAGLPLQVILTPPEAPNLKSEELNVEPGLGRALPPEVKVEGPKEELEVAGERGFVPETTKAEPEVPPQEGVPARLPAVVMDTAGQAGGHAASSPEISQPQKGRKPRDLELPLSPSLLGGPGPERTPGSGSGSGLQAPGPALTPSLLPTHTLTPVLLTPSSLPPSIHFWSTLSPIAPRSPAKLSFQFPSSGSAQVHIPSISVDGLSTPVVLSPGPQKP
The data set is described as follows: EMSA. Background: In EMSA bound probe runs differently from free probe, usually more slowly.

Data set [2] addresses T1, ELK1. The data set is described as follows: EMSA. The source holds these as a separate data set.

Where two headings read alike, the source gives them in different places.

B1: rs8040749-G probe (centenarian allele) (dsDNA)
DNA 1: CCTGCCTTCCGGAAGTTCATG
DNA 2: CATGAACTTCCGGAAGGCAGG
Regarding B1, the binding result with ELK1 [1] was “binds”.

B2: rs8040749-A probe (reference allele) (dsDNA)
DNA 1: CCTGCCTTCCAGAAGTTCATG
DNA 2: CATGAACTTCTGGAAGGCAGG
Regarding B2, in the data set with ELK1 [2], the binding result is “no binding”.
